B1: Serine/threonine-protein kinase 4 (Homo sapiens), Q13043 (parent)
chain: METVQLRNPPRRQLKKLDEDSLTKQPEEVFDVLEKLGEGSYGSVYKAIHKETGQIVAIKQVPVESDLQEIIKEISIMQQCDSPHVVKYYGSYFKNTDLWIVMEYCGAGSVSDIIRLRNKTLTEDEIATILQSTLKGLEYLHFMRKIHRDIKAGNILLNTEGHAKLADFGVAGQLTDTMAKRNTVIGTPFWMAPEVIQEIGYNCVADIWSLGITAIEMAEGKPPYADIHPMRAIFMIPTNPPPTFRKPELWSDNFTDFVKQCLVKSPEQRATATQLLQHPFVRSAKGVSILRDLINEAMDVKLKRQESQQREVDQDDEENSEEDEMDSGTMVRAVGDEMGTVRVASTMTDGANTMIEHDDTLPSQLGTMVINAEDEEEEGTMKRRDETMQPAKPSFLEYFEQKEKENQINSFGKSVPGPLKNSSDWKIPQDGDYEFLKSWTVEDLQKRLLALDPMMEQEIEEIRQKYQSKRQPILDAIEAKKRRQQNF

Variants of: B1
Conditions: with akt1_human AKT1, P31749
Chain of akt1_human AKT1, P31749 (P31749 whole entry): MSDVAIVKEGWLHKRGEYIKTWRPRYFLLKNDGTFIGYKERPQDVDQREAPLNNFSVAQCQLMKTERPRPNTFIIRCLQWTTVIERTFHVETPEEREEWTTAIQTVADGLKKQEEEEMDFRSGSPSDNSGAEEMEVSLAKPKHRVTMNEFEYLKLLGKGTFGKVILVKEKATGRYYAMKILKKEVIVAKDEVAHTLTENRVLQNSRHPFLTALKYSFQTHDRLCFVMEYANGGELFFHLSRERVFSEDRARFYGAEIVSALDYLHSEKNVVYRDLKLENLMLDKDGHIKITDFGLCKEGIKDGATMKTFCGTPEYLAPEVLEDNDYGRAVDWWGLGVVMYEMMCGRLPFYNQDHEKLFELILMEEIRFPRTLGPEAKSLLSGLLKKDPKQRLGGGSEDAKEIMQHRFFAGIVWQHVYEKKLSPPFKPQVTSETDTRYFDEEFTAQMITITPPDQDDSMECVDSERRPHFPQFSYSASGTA

effect of a mutation on the interaction	Variant
disrupting interaction	K59R
